# Test results from US20250357519A1, “APPLICATIONS OF O2-INSENSITIVE FORMATE DEHYDROGENASE” (UNIVERSITY OF MARYLAND, BALTIMORE, priority 2022, published 2025).
# Columns and labels:
# [1] = H2O2 production, coumarin boronic acid (CBA) assay; format: biochemical, Desulfovibrio vulgaris Hildenborough; conditions: aerobic catalysis, formate between 1 and 10 Km
# Procedure: Coumarin Boronic Acid (CBA) Assay. 10 mg of coumarin boronic acid (CBA) Cayman Chemicals 14051) was dissolved in 3.33 mL of DMSO. 101 μL of the CBA stock and 1.6 μL 0.5MDTPA were added to 3.9 mL 50 mM sodium phosphate pH 7.4 to produce a 2× working solution. The remaining steps essential identical to those used in the AR assay except that the plate was shaken at 400 rpm in an incubator (23° C.) for 15 min prior to CBA addition. Fluorescence detection was initiated by addition of 50 μL of the CBA 2× working solution, and the plate was scanned in fluorescence mode (excitation 332 nm and emission 470 nm). This method was also used in the context of redox bifurcation to quantify H2O2 production by DvH-FDH2 in the presence of 30 μM cytochrome c. Independently, the latter was incubated with H2O2 for the same duration (in the absence of DvH-FDH2) to assess the extent of peroxidase activity. Cytochrome c concentration was estimated as follows: oxidized ε410=106.1 mM^−1 cm^−1 and reduced ε550=29.5 mM^−1 cm^−1.
# The following controls were common to both CBA and AR assays. (1) Heat-denatured DvH-FDH2, (2) addition of catalase (100 U/mL), (3) addition of SOD (10 U/mL), (4) FDH2 omitted, (5) fluorogenic substrate excluded, (6) formate excluded, and (7) buffer only.
# [2] = tested on: equine cytochrome c; experiment: Reduction of equine cytochrome c by DvH-FDH2; format: biochemical
# [3] = H2O2 production, Amplex Red (AR) method; format: biochemical, Desulfovibrio vulgaris Hildenborough; conditions: aerobic DvH-FDH2 catalysis, AR assay
# [4] = Oxygen consumption (Clark-type O2 electrode oximetry); format: biochemical, Desulfovibrio vulgaris Hildenborough
# [5] = Phenazine ethosulfate (PES)/dichlorophenolindophenol (DCPIP) assay of formate oxidation by DvH-FDH2; format: biochemical, Desulfovibrio vulgaris Hildenborough; conditions: PES/DCPIP-based
# Excerpt: FIG. 38. Experimental workflow for aerobic PES/DCPIP assay. Prepare cuvette (1), fill with reaction mix (2), add stirrer (3), initiate kinetics by the addition of DvH-FDH2 while the contents of the cuvette are being mixed (4), and continue data collection until completion (5). Blue arrows shown at the bottom in steps 4 and 5 denote stirring.
# FIG. 39. Experimental workflow for anaerobic PES/DCPIP assay. Setup cuvette (1,2), add reaction mix (3), gas with argon (4), start the reaction by injecting DvH-FDH2 (5), and collect data until the reaction goes to completion (6). Blue arrows shown at the bottom in steps 4-6 represent stirring.
# In this dye-linked assay, PES (Em,7=+65 mV) serves as the primary electron acceptor. Following its reduction by FDH2, PES nonenzymatically transfers electrons to a second dye, DCPIP, facilitating spectrophotometric detection.^91 Workflows are described in FIGS. 38 and 39. PES was chosen over PMS because of its long-term stability.^120 Furthermore, necessary precautions were taken in handling and preparing the reagents, including protecting the reagents from light.^187 DvH-FDH2 was assayed in 1 mM PES (Sigma-Aldrich P4544-1G)/93 μM DCPIP (98% pure; Acros 152870100) in 50 mM Tris pH 8.0. […] Assays were performed using a UV-2600i spectrophotometer (Shimadzu Life Sciences) equipped with T2 Peltier/stirrer accessory (Quantum) and monitored at 600 nm. […]
molecule,measurement,setting,value
"DvH-FDH2 (protein, non-natural residues; left off: small tags and cut ends) chain 1: MRMPRRTFIKLASASAGALAFAGLGQSLAPTVARAAELKIAKAKVTPSVCCFCAVGCGLLVYTDTQTGRSINIEGDPDHPTNEGTLCPKGASIWQTTERSKRVTKVLYRAPGAAAWEEKSWDWALPRIARKIKETRDATFELTNDKGQTVNRTRGIASVGSAAVDNEEGWLMQAMMRALGLVYIESHARIUHSSTVGALAESYGRGAMTNHWIDLKNSDVILIMGSNAAENHPISFKWVTRAQERGATLIHVDPRFTRTSAKADIHAHIRSGTDIAFFGGLIRYIMENDLFFRQYVVDYTNASYIVGADYGFADGLFTGFDAEKGTYNTKKWAFAADENGMTLKDPTLNDPRCVFQLMKAHYARYDRKTVSDVTGISEEQLATLWSTFASTGKPDRAGTILYAMGQCQHTVGVQNIRALSMIQLLLGNIGIAGGGVNALRGESNVQGTTDISLLCDNLSGYLPTPKASWATFDDYVKGTTPVDKDPKSANWWSNRGKYLASYMKSVYPTASHQDGYLWHPKVDDGKITDYSWLQIFERMSKGGFKGAFVWGQNPCAGGANAGKNRKAMETLDWMVVVNLFENESSLFWKGPGVDPAKVKTEVFFLPACMSVEKGGSIANSGRWLQWREPGPKPMGDSRSDGDIVLDLYDEIRKLYREEKGAFPEPVLALDTDYRTDGKYDHHKVAKTLNGKFLTDVTIGDKTYKAGQQVPGFAMLQADGSTTSGCWIFTGCYTDAGNMMARRDRTQTPEQAAIGLFPNWSYAWPANRRILYNRAAVDMTGKPFDPKRAVIAWNGEKWVGDVPDGGWKPGEKLPFIMIREGRGQLFGPGRVDGPFPEHYEPFESPLESHPFSKQRVNPTALAFSHEPKAVRDKRYPFICTTYRVTEQWQSGTMTRNTGWLKEMQPEGFCEISRELAKELGIANGDAVVLESLRGKVQVVAIVTPRLKPFKVMGEVMHEVGIPWQFGWGQHVGKGDSANLLSPSVGDPNTGIPETKVFMVNLRKA chain 2: MRPLGSLPQGMRRVSRRHIREAYMNGKTFFIDQTRCTACRGCQAACKQWKKFGSIETRNTGSYQNPPDLGPSTFKLVRFNEVEVDGKLKWLFFPEQCRHCLEPPCKMVADALIPGAIVQDAETGAVLYTEKTKGLDYMEVRSACPYDIPRQDPATGLLTKCNMCIDRVQNGMLPACVKTCPTGTMHFGDRADMLELAQKRLGEVKKRSPAALLADSDLVRVLYLCELAPANYHSHMVAEADTSRIGPFSRRALLRLRPFA",H2O2 production,[1],64±6%
same,native equine cytochrome c reduction,[2]; anaerobic conditions,stoichiometric reduction
same,native equine cytochrome c reduced,"[2]; in air, 30 μM cytochrome c, 10 μM formate",~80%
same,H2O2 produced per mole of formate oxidized,[3],roughly 0.75 mol
same,electron flux towards hydrogen peroxide generation (u/v value),"[4]; oximetry, catalase added after equilibrium",~80%
same,fraction of electrons from formate ending up in H2O2 (x/y value),"[4]; oximetry, catalase added after equilibrium, likely an underestimate",roughly one quarter
same,O2 uptake lower in presence of catalase (initial velocities),[4]; presence vs absence of catalase,50%
same,"kcat/Km for formate oxidation, fold higher than aerotolerant Mo-Cys-FDH from Rhodobacter capsulatus (NAD^+)",[5],~500 fold
